In the DeepSol protein solubility set:

Test: soluble on expression in E. coli; label from the status in PepcDB or PDB records

Question: With “MAHHHHHHMKLMLKKKKKGRKRKRSYYKEIESLFWTAEDYNFDKDKQYLENIDKNMLVKLFELICFYSLKDLHVYEEQALITSKMLDIIQIPEGRAFYGFQMCMENIHDEVYACIFETYIPDSKQKRVIINKVIELDSVLKKQKWLTEIFESNIPYYNKLVLLYISKVLFNGTLNILIGYCKENSILPCLCNVHEKIHRDEYLHGDFSVMCCNHLVNKLKYEHVLDYFKMAVDLEYQFSLEMLELNVLKIKKEQVRAFLEYLTDTMLTNLKYPKHYNSKYPFSWPEFTKIIVNENGKEETVKKGENVYGEKQILFDEDF” as the sequence, how does the “soluble on expression in E. coli” value read?
Answer: not soluble

Question: With “MRIGVIMGGVSSEKQVSIMTGNEMIANLDKNKYEIVPITLNEKMDLIEKAKDIDFALLALHGKYGEDGTVQGTLESLGIPYSGSNMLSSGICMDKNISKKILRYEGIETPDWIELTKMEDLNFDELDKLGFPLVVKPNSGGSSVGVKIVYDKDELISMLETVFEWDSEVVIEKYIKGEEITCSIFDGKQLPIISIRHAAEFFDYNAKYDDASTIEEVIELPAELKERVNKASLACYKALKCSVYARVDMMVKDGIPYVMEVNTLPGMTQASLLPKSADAAGIHYSKLLDMIIETSLRVRKEEGF” as the sequence, how does the “soluble on expression in E. coli” value read?
Answer: not soluble

Question: Which “soluble on expression in E. coli” value does the source give for “MKDNEQKAGSVADQKNKIRERYKGVSIDELDVIPALPQEDIFAVENEQRVAVYARVSTDDPRQTSSYELQKNHYHDVISKSPNWKLVQIYADEGISGTSLQHRDQFKLMIEDCKKGEIDLIVTKSVSRFARNVVDCIGYVRELLALPHPVGVFFETERLNTFDPKSEMVLSFMATLAQEESHTKSEIMNASIEMRFRRGIFLTPTLLGYDHDEDGNLVVNEGEAKIVRLIFMMYLNGCTCQEIADTMTELGCETKKGNTVWSPGSILQILQNERHCGDVLARKTYTPNYLNHKSKKNMQNRPQYRKRNHHEAIISRDDFIAVQRLISNAKYGNKGILPELKVISNGVLKGFVSINPRWAGFKENDYISASLSVYDQMEQLSPSASSVEVQSGDFDLRGYEIARSQFFDGTDRITVTFSLNDIKFSTAAVRKLNSTLVELLLHPNKHLFAVRTASQAHRNAMQWAKKRGELSVPRAVSGTAFMPTVYALLGWNTDCRYRITGIRRGNGNDAVLLFNLEETEIFIPSDVIDEQQTSDARTDVKPLEHHHHHH” here?
Answer: soluble

Question: With “MFSEKFFTASFGPDDEQPAIKAAANNAAPIFHLFILEFLLFKYQLLSKDSEYPYLLIRAGDNNRPKKAERRDKASKMWSRNQEKHGSKKSEKSNQNKNFYVREFFSFGASSKKFPNHVFRDVF” as the sequence, how does the “soluble on expression in E. coli” value read?
Answer: not soluble

Question: Which “soluble on expression in E. coli” value does the source give for “MGSDKIHHHHHHVIRRKKEADMQLPDAWDWESGERTIMASTAPQEGHLWQEELQASPDGERFAAVTALDETTFSLRINDQTQEATYDKIWLPRFSPDGRLTALVQEDGEWTMLVEEEAWPGHYGYLWSTMFGPSGDIAAPAQQDGEYGMVLNGTPWETLYENANNYCISPAGGKTAAVVQTRSMGQADVATFQEGIYSVAVNGEAWPVNFVNCWTPVFSADGRRVAVQVRRNLHDYTIAVDGTPWTINYQCVWEPCFHPSSGGVAAPVRQNGMWGVALDGQMLWKARNAQCWNLRYSPDGSHLWAVVAPEYGMFTVSLDDTPWTFRAPVVTDMVLSPSGDRAAALASDNNTLWQVVVDGKPWRGTYDMAWQPVFSPDGTRVAARVERNGKYVVLLDGAPAAEAFDTAFDPVFSPDGRKLLLRGVRNGKAVRIVKQLQ” here?
Answer: not soluble

Question: Which “soluble on expression in E. coli” value does the source give for “MGSDKIHHHHHHENLYFQGMNIETLMIKNPPILSKEDRLGSAFKKINEGGIGRIIVANEKIEGLLTTRDLLSTVESYCKDSCSQGDLYHISTTPIIDYMTPNPVTVYNTSDEFTAINIMVTRNFGSLPVVDINDKPVGIVTEREFLLLYKDLDEIFPVKVFMSTKVQTIYKEVRLDQAVKLMLRRGFRRLPVIDDDNKVVGIVTVVNAIKQLAKAVDKLDPDYFYGKVVKDVMVTNLVTIDELASVNRAAAEMIVKRIGSLLILNKDNTIRGIITERDLLIALHHILVMEKFKEKL” here?
Answer: soluble

Question: Which “soluble on expression in E. coli” value does the source give for “MGSDKIHHHHHHMTPPPDELLAVRQAVEWAITTRRSVRAFLPKPVTADTVEAILNTARFAATGVNIQPWKVHVLMGAAKDRVCAAIKQIDDDPAVAVMHADEWAYYPKEWTSPYVDRRRAVGWRLYSLLGIEKGDKARMQVQHGRNYQFFGAPVGLFFTVDRLMSEGSLLDYGMFLQNIMVVARTYGLSTCPQAAFMKYHRIIEQELGLGAHEKFVVGMSLGYADEERIENTLASEREPAASFTTFHEK” here?
Answer: not soluble

Question: With “MWRTRVVHTTGYVYQSPVTASYNEARLTPRSSSRQNLVLNRVETIPATRSYRYIDYWGTAVTAFDLHAPHTELTVTSSSVVETERPEPLAAKATWADLQSTAVIDRFDEVLRPTPHTPASARVDAVGRRIRKCHEPSEAVVAAARWARSELDYIPGTTSVHSSGLDALEQGKGVCQDFVHLSLMVLRSMGIPCRYVSGYLHPKRDAVVGKTVDGRSHAWVQAWTGGWWHYDPTNDNEITEQYISVGVGRDYTDVSPLKGIYSGEGVTDLDVVVEITRLA” as the sequence, how does the “soluble on expression in E. coli” value read?
Answer: soluble

Question: With “MLLELPATNSALAIKSVLMAMTPNNDAILVVGERGHIINWQNDDNWQQLQSPVSVAITDVTILSDGSKVAVGHDGVILKVDSNSTTWRKVFTGKEITQFQIAQLKQQYQSLEQVILQTQDEDELEELTYQLDDLTFAIEDNQLELKSGPNKPLLSVTSTSNDTLFASGAYGILLSSKDKGETWQLVSNHLDNPDRFHLNTVIATADDQLYIVGENGMGFHSTDVGQTWSVMTLPYSGSLFGILANTVKTHTISTDDINSTKNKTQLVAFGLQGNIMVSLDGGGNWQHIKLPRSTSLLGGNFSKQGKVYLVGHGGVIVSFYPENLSTLTIKKHPSGAALSSVLVKDNSLILAGQFGISQWPIEAEELEHHHHHH” as the sequence, how does the “soluble on expression in E. coli” value read?
Answer: not soluble

Question: For “MLLDKLSRPLKVLRISLTDRCNLRCNFCMPPGKEYNFLPKRQLLTPEEIEEYVKIFAKLGVEKVRLTGGEPLLREDLEEIIQRISKVEGIKDIALTTNGVFLKERLKALKEAGLKRITVSVHSLNPEKNQKLVNRSVNLGEVFEVIIRAKELGFKVKVNSVIIKGFNDDEILDLARFFKNLGVTLRFIEYMDVGTVNDWDFSKVVSADEILNLMKKEFTFYPLPKRPEDTSMDFIYEDGNKFGIIASVTKPFCRGCNRIRLSADGKLYTCLFSDKGHDLRNAVDKENFIKEVWKDRKDRYSELRRQMKRERKVEMFKVGGMGHHHHHHSH”, which “soluble on expression in E. coli” value is on record?
Answer: soluble

Question: With “MAHHHHHHMQRYLMNTSYLQGQLKSLYALHNKTVADYGELVQNLNEECTILCDVVPSYRISSTLENEDGGGQRKQKEVYNVQKLEHEILTQYTHFLQLLRKLSRKSHPEQQALGSRLCARLVKSSAPEFNHADALLSLAIDFANSKSVRVAQPCQTALSELLDDQKVSDTTEHIVGALLRIVRKRSYAMNPKLLNLLLHVRVAMVDVHREDLAEEKAKSKRLKKEDKELARQLQKSKARRDRAEIAAKQTRILHRIFVIYLRVIEASKTCSPVHQTKILAPTLEGLVKFAPLVNLELYQQLMEALKDLVKGGGTSRTRLRVGGTEGGSDGDNVDDKHEEETATSVTTRLHALVAVATLAQRDATATASEWRVDLSYFHEVLFRCLGEALELPSAESSSSAKMTREGEQEASNGDMDEVASQGSTSSAGSLSSQAFSIAQSMTQGTLVHQNASREWTFHVGLVLRAVDLLVLTQKHLPVARVTAILRRLIQATPLCPPHIAMSILALCHRIVLRYPLAGGVIVGGSDNVIAGRGAYNPEALQTASANADSSFTWELSLLSHSYHPTLRQVAETMCKHYHKVSKHQHGQAPIVTKQLDSLGPYEVIEEYDPSLGNLKPAAPLPTALKAEVRKRQREEAQAYEVA” as the sequence, how does the “soluble on expression in E. coli” value read?
Answer: not soluble

Question: With “MGHHHHHHSHMTLEEVRGQDTVPESTARMQGAGKALHELLLSAQRQGCLTAGVYESAKVLNVDPDNVTFCVLAAGEEDEGDIALQIHFTLIQAFCCENDIDIVRVGDVQRLAAIVGAGEEAGAPGDLHCILISNPNEDAWKDPALEKLSLFCEESRSVNDWVPSITLPE” as the sequence, how does the “soluble on expression in E. coli” value read?
Answer: soluble

Question: For “MSLQRPVMLLSDDDSEVRRLVYDSLDRLGCEMEEPDNGEQALAAFRRIQPEIVLLDLAMTQADAFELCASLHGARGGERVSILAVAGRGDLEGVRRAIDAGATDFLIHPVDVEMLGLRLSCGRRSAQTRERLSRNEERNRGLIKGIPHLVLQISKEGTVLDFEAPRDFDLRQFPDGLRGRRIQDVFFADAPYVIVRCIERVIETAESQVLEHNVRIGNDIHVYETRILPNAEGEPTVVMRDVTERRKMEKEGHHHHHH”, which “soluble on expression in E. coli” value is on record?
Answer: soluble

Question: Which “soluble on expression in E. coli” value does the source give for “MAKRVADAQIQRETYDSNESDDDVTPSTKVASSAVMNRRKIAMPKRRMAFK” here?
Answer: soluble

Question: For “MSGQHRTRVGGVILAAGRSSRYESGNKLLATIDGKAVVRQVTETACKSSLSDAVAVLGHEKVAVAAALDGLSLSVQHNDEYATGQSASVRHGVEFARSAGWDAALFLLGDMPFVRVETIEELLEAYRTGTATVVVPEHEGRRGNPVLFDNCHFDSLASVSGDRGGRDIIETTEKTAFIEVSDPGVHWDIDTDADLAEFTDRRDSLLEHHHHHH”, which “soluble on expression in E. coli” value is on record?
Answer: not soluble

Question: Which “soluble on expression in E. coli” value does the source give for “QQEKEFLESYPQNCPPDALPGTPGNLDSAQEKALAELRKLLEDAGFIERLDDSTLLRFLRARKFDVQLAKEMFENCEKWRKDYGTDTILQDFHYDEKPLIAKFYPQYYHKTDKDGRPVYFEELGAVNLHEMNKVTSEERMLKNLVWEYESVVQYRLPACSRAAGHLVETSCTIMDLKGISISSAYSVMSYVREASYISQNYYPERMGKFYIINAPFGFSTAFRLFKPFLDPVTVSKIFILGSSYQKELLKQIPAENLPVKFGGKSEVDESKGGLYLSDIGPWRDPKYIGPEGEAPE” here?
Answer: soluble

Question: With “MGNQCQNGTLGSDYHNRFPREHAVGYVQGDSYLDLKKFDDTWPEVNNFKPTAASILRRGLDPTSINVLGRKTADLREHYIIGRKLGQGQFGTTYLCTEINTGCEYACKTIPKRKLITKEDVEDVRREIQIMHHLSGHKNVVAIKDVYEDGQAVHIVMELCAGGELFDRIQEKGHYSERKAAELIRIIVSIVAMCHSLGVMHRDLKPENFLLLDKDDDLSIKAIDFGLSVFFKPGQAFTELVGSPYYVAPEVLHKRYGPESDVWSAGVILYVLLSGVPPFWAETQQGIFDAVLKGHIDFQSDPWPKISDSAKDLIRKMLSHCPSERLKAHEVLRHPWICENGVATDQALDPSVISRLKQFSAMNKLKKLALRVIAERLSEEEIAGLREMFKAVDTKNRGVITFGELREGLRRFGAEFKDTEIGDIMEAAHNDNNVTIHYEEFIAATLPLNKIEREEHLLAAFTYFDKDGSGYITVDKLQRACGEHNMEDSLLEEIISEVDQNNDGQIDYAEFVAMMQGSNVGLGWRTMESSLNVALRDAPQVH” as the sequence, how does the “soluble on expression in E. coli” value read?
Answer: not soluble

Question: With “SVRTACKSRAVSSGKQTGKWQSWSDAGVLTVFECEGLKLILNTWTPIPFSPFPVHHLFTPMLIGRLCGTRIETLALIHGGISLPATALRSPNSGVKLPLLVSPLFPMETTPSALRLLSSHKAESGSPTLFTLVHLLPLLLQ” as the sequence, how does the “soluble on expression in E. coli” value read?
Answer: soluble

Question: For “MSLRHLQSTIHPELDHLDDKIIFQRNAARAIVLDGEDVLLLYTERYHDYTLPGGGIDEGEDVIAGLVRELEEETGAQNIHSIKPFGIFEEFRPWYKDDADVMHMISYCYTCKIDRELGETAYEDYEVKNGMRPVWMNVHEAIAHNEKTMAESPKKGMSIERETFLLHLIAKELLEGHHHHHH”, which “soluble on expression in E. coli” value is on record?
Answer: soluble

Question: For “MGSDKIHHHHHHMIKHHPHAELLQAHAQGELPLSMSMAVAAHCALCQECQNQIAKLTEQAAKLAFVSSSDDPVQHNASNEIDVVDNDPWQQMLSNIMALPESTMSEPYIESSVTVSHRNIRYQIPRVFRQHIALPWQQIGKVSRMRFDIDEKNTRASLLYIEALGEIPQHTHKGFELTLLLSGEFSDSTGNYVVGDFIILDGNTQHSPTTQTGCLCYTVLDAPLYFTKGISKLLNPIGELIY”, which “soluble on expression in E. coli” value is on record?
Answer: not soluble
